Results as given in US20260258115A1 (MAPP BIOPHARMACEUTICAL, published 2026).

B1: ADI-41313 (antibody, V domains shown)
VH: EVQLVESGAEVKKPGASVKVSCKASGYTFNNYDISWVRQAPGQGLEWMGWISTYNGNTNYAQKFQGRATMTTDTSTTTAYMELRSLRSDDSAIYYCARVYCGGDCHNPFFLYFDLWGRGTLVTVSS
VL: SYVLTQPLSVSVALGQTARITCGGNNIGSKSVHWYQQKPGQAPLLVIYRDNNRPSGIPERFSGSTSGNTATLTISRAQAGDEADYSCQVWDNSDWVFGGGTKLTVL
B2: ADI-41314 (antibody, V domains shown)
VH: QVQLVQSGAEVKKPGSSVKVSCKAFGGIFSSYAISWVRQAPGQGLEWMGGIIPIFGTTKYAQKFQGRVTITADKSTSTVYMEVSSLRFEESAVYFCARAYCSGGTWYGGADYWGQGTLVTVSS
VL: QSVLTQPPSVSVSPGQTARITCSGDVLPKQYAYWYQQKPGQAPLLVMYKDTERPSGIPERFSGSSSVTAVTLTISGVQAEDEADYYCQSADSTQELFGGGTKLTVL
B3: ADI-41315 (antibody, V domains shown)
VH: EVQLLESGPGLVKPSETLSLTCAVSGGSISNYYWSWIRQPPGKGLEWIAYISYSGTTNYNPSLESRVTISVDTSKNQFSLKLNSVTAADTAVYYCARHEFLVLPDVWGQGTLVTVSS
VL: ETTLTQSPGTLSLSPGERATLSCRASQSVSSTFLAWYQQKPGQAPRLLIYAASSRATGIPDRFSGSGSGTDFTLIISRLEPEDFAVYYCQQYRSSPFSFGPGTKVEIK
B4: ADI-41316 (antibody, V domains shown)
VH: QVQLVQSGGGVVQPGRSLRLSCAASGFTFNNYGMHWVRQAPGKGLEWVAVLSFDGINKYYADSARGRFTISRDNSKNTLYLQMNSLRAEDTALYYCAKDRQEYSSGWTHDACDIWGQGTMVTVSS
VL: EIVMTQSPATLSVSPGERATLSCRASQNVNNNLAWYQQNPGQAPRLLIFGASTRATGIPARFSGSGSGTEFTLTISSLQSEDFAVYYCQQYNNWPRTFGQGTKLEIK
B5: ADI-41317 (antibody, V domains shown)
VH: EVQLVESGGGLVQPGGSLRLSCEASRFKFSTFWMAWVRQAPGKGLEWVANIKQDGSETYYLDSVKGRFTISRDNAKNSLFLQMKSLRAEDTAVYYCAGLWWGDLENWFDPWGQGTLVTVSS
VL: QSVLTQPPSVSGAPGQRVTISCTGSSSNLGTGFDVHWYRQLPGTAPQLLIYGSTNRPSGVPDRFSGSKYGTSASLAITGLQAEDEADYYCQSYDSNLRAYVFGTVTKVTVL
B6: ADI-41318 (antibody, V domains shown)
VH: EVQLLESGAEVKKPGSSVRVSCKAFGGTFSSYAFSWVRQAPGQGLEWMGGITPMFGTENYAPNFQGRVTITADKLTTTVYMELSRLRSEDSAVYYCAREGGRLGTTMGAFDMWGQGTMVTVSS
VL: DIRLTQSPSSLSASVGDRVTITCRASHGISSALAWYQQRPGRVPQVLIFHASTLESGVPSRFSGSGSGTDFTLTISSLQPEDFATYYCQQFNSYPYTFGQGTKVEIK
B7: ADI-41319 (antibody, V domains shown)
VH: QVQLQESGPGLVKPSQTLSLTCTVSGGSISSGDYYWSWIRQPPGKGLEWIGYIFYSGTTYYNPSLKSRVTISLDTSQNQFSLKLSSVTAADTAVYYCARDGDEVDYVWGTRRYLDSWGRGTLVTVSS
VL: EIVLTQSPGTLSLSPGERATLSCRASQSVSSRYLAWYQQKPGQAPRLLIHGASSRATGIPDRFSGSGSGTDFTLTISRLEPEDFAVYYCLQYGSLPKTFGQGTKVEIK
B8: ADI-41320 (antibody, V domains shown)
VH: QVQLVQSGVEVKKPGESLKISCRGFGYSAYNYWIAWVRQKPGKGLEYMGTIYLDDSDTIYSPSFQGEVTISADRSINTAYLQWNSLKASDTANYYCARQMDFYFDVWGRGTLVTVSS
VL: QSVLTQPPSVSVSPGQTARITCSGDPLPRESAYWYQQKPGQAPVVVIFNDIERPLGIPARFSGSRSGTTVTLTISGAQAEDEADYYCQSADSRKTFVFGPGTKLTVL
B9: ADI-41322 (antibody, V domains shown)
VH: QVQLVQSGAEVKKPGSSVRVSCKASGGSFSSYATSWVRQAPGQGLEWMGGIIPMYDAVNYAQKFQGRVTITADESTTTAYMELSSLRSEDTAVYYCARSSGYTGTNFFDYWGQGTLVTVSS
VL: DIQMTQSPSSVSASVGDRVTITCRASQDISSWLAWYQQKPGKAPKLLIYTASSLQSGVPSRFSGSGSGTDFTLTISRLQPEDFATYYCQQANSFPRVTFGGGTKVEIK
B10: ADI-41323 (antibody, V domains shown)
VH: EVQLLESGGGVVRPGGSLRLSCAASGFTFDDYAMGWVRQAPGKGLEWVSGITWNAGSTAYAGSVKGRFTISRDNAKNSLFLQMNSLRAEDTAFYLCARHVDSSGPVARHFDYWGQGTLVTVSS
VL: NFMLTQPHSVSESPGKTVTISCTRSSGSIARNYVQWYQQRPGSAPTIVIYEDNQRPSGVPDRFSGSIDSSSNSASLTISGLKTEDEADYYCQSYDPSNVVFGGGTKLTVL
B11: ADI-41324 (antibody, V domains shown)
VH: EVQLVESGGGLVQPGGSLRLSCAASGFTVSNNYMRWVRQAPGKGLEWVSVIYSSGSTDYADSVKGRFTISRDNSKNTLYLQMNSLRAEDTAVYYCARERTLFYYDSSGFFDYWGQGTLVTVSS
VL: ETTLTQSPGTLSLSPGERATLSCRASQSVDSSYLAWYQQKPGQAPRLLIYGASNRATGIPDRFSGSGSGTDFTLTISRLEPEDFAVYYCQQYGRSLTFGGGTKLEIK
B12: ADI-41340 (antibody, V domains shown)
VH: QVQLVQSGAEVKTPGSSVKVSCKASGGTFRSYPITWVRQAPGQGLEWMGTVIPVFDTVNYAPKFQGRVSITADESTNTAYMELSSLRSDDSAVYYCARDLGWLRPMTTVTSPHFDYWGQGTLVTVSS
VL: QSVLTQPASVSGSPGQSITISCTGTSSDVGGYDFVSWYQQHPGKAPKLMISEVTDRPSGVSNRFSGSKSGNTASLTISGLQAEDEADYYCTSYTSSRTYVFGTGTKLTVL
B13: ADI-41341 (antibody, V domains shown)
VH: QVQLVQSGAEVKKPGSSVKVSCKASGGTFSSYATHWVRQAPGQGLEWMGGIIPIFGRATYAQKFQGRVTISADESTSTAYMELSSLRSEDTAVYYCARGRDDRSGDHIAFLYHYGMDVWGQGSTVTVSS
VL: QSVLTQPPSVSAAPGQKVSISCSGSSSNIGINHASWYQHLPGTAPKLLIYDNNKRPSGIPDRFSGSKSGTSATLGISGLQTGDEAAYYCGTWDTGLSAVVFGGGTKLTVL
B14: ADI-41342 (antibody, V domains shown)
VH: QVQLVQSGAEVKKPGSSVKVSCKASGGTLTSYGVSWVRQAPGQGLEWMGGIIPIFGTVDYAQKFQGRVTITADEPTSTAYMELSSLTSDDTAVYYCARDPWVSGPVEFYYYFDVWGRGTLVTVSS
VL: DIVLTESPATLSLSPGERATLSCRASQSINNRYLAWYQQKPGQAPRLLIFGASSRATGIPDRFSGSGSGTDFTLTISRLEPEDFAVYYCQQYGSTPPTFGQGTKVEIK
B15: ADI-41343 (antibody, V domains shown)
VH: EVQLVESGGGLVKPGGSLRLSCAASGFTFSSYYMNWVRQAPGKGLEWVSSISGGSSYISYADSVKGRFTISRDNAKNSLYLQMNSLRAEDTAVYYCARVDTPMVRGYYFDYWGQGTLVTVSS
VL: QSVLTQPPSVSGAPGRRVTISCTGSSSNIGAGYDVHWYQQLPGTAPKLLIFANSNRPSGVPDRFSGSKSGTSASLAITGLQAEDEADYYCQSYDSSLSGSVFGGGTKVTVL
B16: ADI-41344 (antibody, V domains shown)
VH: EVQLVESGGGLVKPGGSLRLSCAASGSSFSSYYMNWVRQAPGKGLEWVSSISSSSTYIDYADSVKGRFTISRDNAKNSLFLQMNSLRAEDTAVYYCARVSSPMIRGYYLDYWGQGTLVTVSS
VL: QPVLTQPPSVSGAPGQRVTISCTGSSSNIGAGYDVHWYQQLPGTAPKLVIHGNSNRPSGVPDRFSGSKSGTSASLAITGLQGEDEADYYCQSYDSSLSGSVFGGGTKLTVL
B17: ADI-41345 (antibody, V domains shown)
VH: EVQLVQSGAEVRKPGESLKISCKGSGYNFASYWIAWVRQMPGKGLEWMGIIFPGDSDTRYSPSFQGQVTISVDKSISTAYLQWSSLKASDTAIYYCATSKYTFGYLDWGQGTLVTVSS
VL: NFMLTQPHSVSESPGKTVTISCTRSSGSIASNYVQWYQQRPGSAPTTVIYEDNQRPSGVPDRFSGSIDSSSNSASLTISGLKTEDEADYYCQSYDTSNQVFGTGTKVTVL
B18: ADI-41346 (antibody, V domains shown)
VH: QVQLVQSGPEVKKPGESLKISCTLSASGLTTYWIGWVRQMPAKGLEWMGIIFPGDSDTRYSPSFQGQVTISADKSTNTAYLQWSGLKASDTAIYYCATLQTPVTGLDQWGQGTLVTVSS
VL: NFMLTQPHSVSESPGKTVTISCTRSSGNIARSYVQWYQQRPGSAPTTVIHEDDQRPSGVPDRFSGSIDTSSNSASLTISGLKTEDEADYYCQSYDPSNYVFGTGTKVTVL
B19: ADI-41347 (antibody, V domains shown)
VH: EVQLVESGPGLVKPSGTLSLTCAVSGGSVSSDNWWSWVRQPPGKGIEWIGEIYPSGGTNYNPSLNSRVTISVDKSKNQFSLKLNSVTAADTAIYYCARAPFDSSGYHSNSVWGQGTLVTVSS
VL: ETTLTQSPLSLPVTPGEPASISCRSSQSLLHSNGHNYLDWYVQKPGQSPQLLIYLSSNRASGVPDRFSGSGSGTDFTLRISRVEAEDVGVYYCMQPLQTPQTFGQGTKVEIK
B20: ADI-41348 (antibody, V domains shown)
VH: QVQLQESGPGLVKPSQTLSLTCAVSGGSISSGGYYWSWIRQHPGKGLEWIGYIYYSGSTYYNPSLKSPVTISVDTSKNQFSLKLTSVTAADTAVYYCARGDYYFDGSGRTTAAFDIWGQGTMVTVSS
VL: DIQVTQSPSSLSASVGDRVTITCRASQSISTFLNWYQQKPGRAPKLLIYDASNLQSGVPSRVSGSGSGTDFTLTISSLHPEDFATYYCQQSYTTPYTFGQGTKVDIK
B21: ADI-41349 (antibody, V domains shown)
VH: EVQLLESGGGLVQPGRSLRLSCTGSGFTFGDYAMNWVRQAPGKGLEWVGLIRSKDYGGTTEFAASLKGRLTISRDDSKSIAYLQMHSLKTEDSAVYYCTRAHLTDYTDINGYQYYFDYWGQGSPVTVSS
VL: DIQMTQSPSSLSASVGDRVTITCQASQDISNFLNWYQQRPGKAPKLLIHDASNLETGVPSRFSGSGSRTEFTFTISSLQPEDIGTYYCQHYDNFPYTFGQGTKVEIK

biological target: RSV F on RSV-A2 virus (Respiratory syncytial virus (RSV-A2)); test: cell-based or functional assay

B1 and B2 cannot be ordered by “Neutralization IC50 (RSV subtype A)” value: over 25 µg/mL for the first, over 25 µg/mL for the second.

B3 and B4 cannot be ordered by “Neutralization IC50 (RSV subtype A)” value: over 25 µg/mL for the first, over 25 µg/mL for the second.

Compared with B5, B6 is higher in “Neutralization IC50 (RSV subtype A)” value: 4.66 µg/mL for the first, over 25 µg/mL for the second.

B7 and B8 cannot be ordered by “Neutralization IC50 (RSV subtype A)” value: over 25 µg/mL for the first, over 25 µg/mL for the second.

B9 and B10 cannot be ordered by “Neutralization IC50 (RSV subtype A)” value: over 25 µg/mL for the first, over 25 µg/mL for the second.

B11 and B12 cannot be ordered by “Neutralization IC50 (RSV subtype A)” value: over 25 µg/mL for the first, over 25 µg/mL for the second.

B13 and B14 cannot be ordered by “Neutralization IC50 (RSV subtype A)” value: over 25 µg/mL for the first, over 25 µg/mL for the second.

Compared with B15, B16 is 2.8-fold lower in “Neutralization IC50 (RSV subtype A)” value: 0.177 µg/mL for the first, 0.0637 µg/mL for the second.

B17 and B18 cannot be ordered by “Neutralization IC50 (RSV subtype A)” value: over 25 µg/mL for the first, over 25 µg/mL for the second.

Going from B19 to B20, the “Neutralization IC50 (RSV subtype A)” value falls from over 25 µg/mL to 0.0765 µg/mL.

With B21 the “Neutralization IC50 (RSV subtype A)” value was over 25 µg/mL.
